In one assay the target is β-lactamase-SBP fusion. The assay can be described thus: SPR; BIAcoreX; purified β-lactamase-SBP amine-coupled to a CM5 chip, streptavidin variant as analyte; blank flow cell as reference. (Surface plasmon resonance follows binding to a sensor surface in real time, without labels.)
Assay [1] addresses SAVSBPM18 engineered streptavidin (S27A, G48T) (UniProt P22629). Kind of assay: affinity column chromatography; streptavidin variant coupled to Affi-gel 15; culture supernatant with β-lactamase-SBP loaded at 142-150% of the theoretical column binding capacity (overloaded); leakage during washing; pure wash fractions pooled with the elution fractions.
For assay [2] the target is unchanged. The assay can be described thus: affinity column chromatography; streptavidin variant coupled to Affi-gel 15; culture supernatant with β-lactamase-SBP loaded at 20% of the theoretical column binding capacity (non-overloaded); PBS wash, elution with 5 mM d-biotin.
Assay [3] has as its target wild-type streptavidin (UniProt P22629). The description is as above.
Assay [4] addresses SAVSBPM18 engineered streptavidin (S27A, G48T) (UniProt P22629). Kind of assay: affinity column chromatography; streptavidin variant coupled to Affi-gel 15; culture supernatant with β-lactamase-SBP loaded at 142-150% of the theoretical column binding capacity (overloaded); leakage during washing; pure wash fractions pooled with the elution fractions. The source holds these as a separate data set.

For assay [5], the target named is wild-type streptavidin (UniProt P22629). The assay is described as above.

pKd: −log10 of the molar value.

Sequence of wild-type streptavidin (from UniProt P22629 25-183) (natural protein) (P22629 25-183): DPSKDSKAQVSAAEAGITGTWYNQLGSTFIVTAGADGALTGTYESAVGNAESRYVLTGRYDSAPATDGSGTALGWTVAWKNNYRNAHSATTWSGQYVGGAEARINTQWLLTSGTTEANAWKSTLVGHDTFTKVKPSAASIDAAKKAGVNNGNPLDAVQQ
Sequence of SAVSBPM18 engineered streptavidin (S27A, G48T) (P22629 25-183 S51A/G72T): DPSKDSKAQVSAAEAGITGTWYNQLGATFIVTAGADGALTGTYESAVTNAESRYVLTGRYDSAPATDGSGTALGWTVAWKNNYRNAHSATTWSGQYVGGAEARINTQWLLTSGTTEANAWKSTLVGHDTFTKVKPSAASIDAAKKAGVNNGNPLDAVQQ
Sequence of wild-type streptavidin (UniProt P22629) (P22629 25-183): as the sequence (P22629 25-183) above

Turning to “SAVSBPM18 engineered streptavidin (S27A, G48T) (from UniProt P22629 25-183) (designed binder)”, in the assay with β-lactamase-SBP fusion, the pKd (as a rule, the Kd on a negative log10 scale, so that one unit is a factor of ten) is 7.80; the koff (in general, the first-order rate constant of dissociation) is 0.000711 s⁻¹; the kon (usually the second-order rate constant of association) was 45300 M⁻¹ s⁻¹.

With “wild-type streptavidin (from UniProt P22629 25-183) (natural protein)”, in the assay with β-lactamase-SBP fusion, the pKd was 8.07, the koff was found to be 0.000816 s⁻¹ and the kon amounted to 95000 M⁻¹ s⁻¹.

As for β-lactamase-SBP fusion, the percent recovery in assay [1] turned out to be 51%; in assay [2], 91%; in the assay with wild-type streptavidin [3], 90%; in assay [4], 58%; with wild-type streptavidin [5], 51%.

These data come from article PMC3712923.
